Test results from paper PMC6062497.
Several values for one entry are separate records, joined by “and”; a condition that tells them apart may be missing. Equal entries are not always repeated.

Molecular target: TRAIL receptors on SK-Mel-3 cells
Conditions: ligand

Kd: 4.82 nM and 2.32 nM
Substance: GpL-FLAG-TNC-TRAIL (from UniProt P10039)
